The record followed here is article PMC11229320, “Dynamics of the Herpes simplex virus DNA polymerase holoenzyme during DNA synthesis and proof-reading revealed by Cryo-EM”.

Numbering of substitutions follows the chain as printed.

For data set [1], the target named is T1, UL30 DNA polymerase catalytic subunit;UL42 processivity factor (Herpes simplex virus 1 (HHV-1);Herpes …, UniProt P04293;P10226 1-1235;1-488, |). The data set is described as follows: cryo-EM; pre-translocation state, open fingers; 2.4 A; Cryo-EM complex buffer not given in material; protein purified in 20 mM HEPES pH 7.8, 400 mM NaCl, 1.5 mM MgCl2, 1 mM DTT, 5% glycerol. Particulars: protein: recombinant;recombinant; copies: 1;1; 5' overhang 26 nt on template (22 bp).

Data set [2] has as its target T1, UL30 DNA polymerase catalytic …. The data set is described as follows: cryo-EM; halted elongation state, dATP in dNTP pocket; 1 mM dATP/dGTP/dTTP/ddCTP mix; Cryo-EM complex buffer not given in material; protein purified in 20 mM HEPES pH 7.8, 400 mM NaCl, 1.5 mM MgCl2, 1 mM DTT, 5% glycerol. Particulars: protein: recombinant;recombinant; copies: 1;1; 5' overhang 14 nt on template after extension (22 nt before).

Data set [3] shares this target. Kind of data set: cryo-EM; DNA editing (exonuclease) state; also 9ENQ (active site); Cryo-EM complex buffer not given in material; protein purified in 20 mM HEPES pH 7.8, 400 mM NaCl, 1.5 mM MgCl2, 1 mM DTT, 5% glycerol. Particulars: protein: recombinant;recombinant; copies: 1;1; 5' overhang 21 nt on template; 1 mismatch (A/G) at primer 3' end.
For data set [4] the target is unchanged. The data set is described as follows: cryo-EM; DNA editing (exonuclease) state; also 8OJB, 8OJC (active site classes), 8OJD (beta-hairpin loop); Cryo-EM complex buffer not given in material; protein purified in 20 mM HEPES pH 7.8, 400 mM NaCl, 1.5 mM MgCl2, 1 mM DTT, 5% glycerol. Particulars: protein: recombinant;recombinant; copies: 1;1; 5' overhang 21 nt on template; 2 mismatches (A/G) at primer 3' end.

T1 sequence (P04293 whole entry, chain 1 of 2): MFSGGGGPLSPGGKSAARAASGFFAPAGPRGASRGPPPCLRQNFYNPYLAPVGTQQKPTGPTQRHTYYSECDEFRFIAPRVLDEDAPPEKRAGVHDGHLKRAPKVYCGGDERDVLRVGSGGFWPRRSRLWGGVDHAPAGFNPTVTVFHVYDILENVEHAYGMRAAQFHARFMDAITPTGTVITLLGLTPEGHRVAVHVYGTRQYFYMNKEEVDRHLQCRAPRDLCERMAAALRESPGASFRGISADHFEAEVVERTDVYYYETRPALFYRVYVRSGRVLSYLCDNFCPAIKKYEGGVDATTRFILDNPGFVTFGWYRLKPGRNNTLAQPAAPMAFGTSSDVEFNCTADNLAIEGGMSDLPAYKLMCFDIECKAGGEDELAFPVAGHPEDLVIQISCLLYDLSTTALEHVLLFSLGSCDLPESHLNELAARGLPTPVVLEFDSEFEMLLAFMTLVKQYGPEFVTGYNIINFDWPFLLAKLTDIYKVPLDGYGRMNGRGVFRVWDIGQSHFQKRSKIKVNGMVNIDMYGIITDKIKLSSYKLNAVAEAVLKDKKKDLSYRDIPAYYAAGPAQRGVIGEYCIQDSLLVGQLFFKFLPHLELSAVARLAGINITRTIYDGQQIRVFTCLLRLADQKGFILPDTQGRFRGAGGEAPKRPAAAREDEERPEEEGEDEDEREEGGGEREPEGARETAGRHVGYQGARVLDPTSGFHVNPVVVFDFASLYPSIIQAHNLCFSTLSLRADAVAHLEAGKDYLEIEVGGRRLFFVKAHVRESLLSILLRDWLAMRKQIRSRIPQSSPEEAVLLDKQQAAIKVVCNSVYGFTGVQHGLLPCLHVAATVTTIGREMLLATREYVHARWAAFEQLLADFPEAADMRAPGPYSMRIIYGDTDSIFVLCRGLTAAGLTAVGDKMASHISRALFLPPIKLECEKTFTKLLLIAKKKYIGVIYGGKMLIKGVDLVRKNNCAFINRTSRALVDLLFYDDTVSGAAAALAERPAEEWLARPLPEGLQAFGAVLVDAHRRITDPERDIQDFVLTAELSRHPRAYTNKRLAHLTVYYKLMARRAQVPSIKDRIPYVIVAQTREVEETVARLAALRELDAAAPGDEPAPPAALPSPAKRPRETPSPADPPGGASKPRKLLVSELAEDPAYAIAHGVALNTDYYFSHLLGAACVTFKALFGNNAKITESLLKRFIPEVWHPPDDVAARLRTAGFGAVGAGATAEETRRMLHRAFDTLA
T1 sequence (P10226 whole entry, chain 2 of 2): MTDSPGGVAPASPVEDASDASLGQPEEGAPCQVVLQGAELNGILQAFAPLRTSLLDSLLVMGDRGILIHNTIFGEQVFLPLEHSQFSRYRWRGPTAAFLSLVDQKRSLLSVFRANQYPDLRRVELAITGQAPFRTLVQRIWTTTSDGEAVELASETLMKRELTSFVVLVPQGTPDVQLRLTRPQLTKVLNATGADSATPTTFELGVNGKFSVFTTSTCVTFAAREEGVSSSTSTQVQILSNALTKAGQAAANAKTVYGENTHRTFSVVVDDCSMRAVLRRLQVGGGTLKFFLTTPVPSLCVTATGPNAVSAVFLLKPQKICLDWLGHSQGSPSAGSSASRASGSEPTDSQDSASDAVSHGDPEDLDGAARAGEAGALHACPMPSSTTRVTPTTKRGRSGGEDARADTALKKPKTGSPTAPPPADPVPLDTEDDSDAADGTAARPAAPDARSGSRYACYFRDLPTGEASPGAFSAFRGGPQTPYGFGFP

B1: pre-translocation primer-template (dsDNA)
DNA 1: CGAAAGTACGTTATTGCGACTGGCCGTCGCTCTACAACGTCGTGACTG
DNA 2: CAGTCACGACGTTGTAGAGCGA
With B1, the binding result in data set [1] is “binds”.

B2: halted elongation primer-template (ddC-terminated) (dsDNA)
DNA 1: ATTTGCTGACCTTTGTTCTAATTGAGTTGGTTGGACGGCTGCGAGGCGATCAAGGTGTCGTAGTGGC
DNA 2: GCCACTACGACACCTTGATCGCCTCGCAGCCGTCCAACCAACTCAATTAGAAC
modifications: 3'-terminal ddC on primer, added in situ: printed primer S5 extended with dATP, dGTP, dTTP, ddCTP to first template G
With B2, the binding result in data set [2] is recorded as “binds”.

B3: 1-bp mismatch exonuclease primer-template (dsDNA)
DNA 1: B2 DNA 1 with A20G, A21G, T22G
DNA 2: GCCACTACGACACCTTGATCGCCTCGCAGCCGTCCAACCAACTCAA
modifications: * before each of the last two A of primer (phosphorothioate?; not defined in material)
In the case of B3, the binding result in data set [3] is “binds”.

B4: 2-bp mismatch exonuclease primer-template (dsDNA)
DNA 1: ATTTGCTGACCTTTGTTCTGGGGTGAGTTGGTTGGACGGCTGCGAGGCGATCAAGGTGTCGTAGTGGC
DNA 2: GCCACTACGACACCTTGATCGCCTCGCAGCCGTCCAACCAACTCAAA
modifications: * before each of the last two A of primer (phosphorothioate?; not defined in material)
With B4, in data set [4], the binding result is given as “binds”.
